Target: soluble CD28-Ig Fc fusion protein (extracellular domain of human CD28 and Fc portion of human IgG1; R&D Systems) (human), P10747
Assay: competitive FACS on transfected 293 cells; competitor sCTLA-4-Ig; score 0/1/2 = CD28/CTLA-4 binding ratio like / greater / significantly greater than WT hB7-1

| Binding Score | Binder |
| --- | --- |
| 1 | Round 2 CD28A4-9 (ligand, not fully specified; X: residue not identified in the source; ends and bridges not checked) ITPKSVTKRVKETVMLSCDYNTSTEKLTSLRIYWQKDSKMVLAILPGKVQVWPEYKNRTITDMNDNPRIVILALRLSDSGTYTCVIQKPVLKGAYKLEHLTSVRLMIRADFPVPTINDLGNPSPNIRRLICSTSGGFPRPHLYWLENGEELNATNTTVSQDPETKLYMISSELDFNVTNNHSIVCLIKYGELSVSQIFPWSKPKQEPPIDQLPFWVIIPVSGALVLTAVVLYCPACRHVARWKRTRRNEETVGTERLSPIYLGSAQSRAEVPSLSX |
| 1 | Round 2 CD28A12-5 (ligand, not fully specified; X: residue not identified in the source; ends and bridges not checked; also: glycosylated membrane protein, sites not given here) ITPKSVTKRVKETVMLSCDYNTSTEELTSLRIYWRKDSKMXLAILPGKVQVWPEYKNRTITDMNDNLRIVILALRLSDSGTYTCVIQKPDLKGAYKLEHLTSVRLMIRADFPVPTINDLGNPSPNIRRLICSTSGGFPRPHLYWLENGEELNATNTTVSQDPGTELYMISSELDFNVTNNHSIVCLIKYGELLVSQIFPWSKPKQEPPIDQLPFWVIIPVSGALVLTAVVLYCLACRHVARWKRTRRNEETVGTERLSPIYLGSAQSSG |
